Patent US20180155451A1 (published 2018)
Where two headings read alike, the source gives them in different places.

T1: FcgRIIa R (human, UniProt P12318 34-217)
T1 construct: extracellular domain; also called FcγRIIa R; FcγRIIa type R; not shown: His tag attached to the C terminus
T1 sequence (looked up): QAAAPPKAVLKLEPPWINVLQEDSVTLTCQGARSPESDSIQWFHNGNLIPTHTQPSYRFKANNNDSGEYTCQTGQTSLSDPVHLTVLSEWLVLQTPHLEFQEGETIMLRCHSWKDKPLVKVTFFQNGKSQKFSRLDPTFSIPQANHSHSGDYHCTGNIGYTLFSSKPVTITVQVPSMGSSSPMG

T2: FcgRIIb (human, UniProt P31994 43-217)
T2 construct: extracellular domain; Expressed in FreeStyle293 cells and purified; used as analyte in Biacore; also called FcγRIIb; CD32B; not shown: His tag attached to the C terminus
T2 sequence (looked up): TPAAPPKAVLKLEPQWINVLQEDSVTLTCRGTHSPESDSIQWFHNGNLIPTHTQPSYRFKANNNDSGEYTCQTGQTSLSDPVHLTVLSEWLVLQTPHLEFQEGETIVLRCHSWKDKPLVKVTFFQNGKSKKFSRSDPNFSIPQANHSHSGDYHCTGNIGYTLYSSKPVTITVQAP

T3: FcgRIIa H (human, UniProt P12318 34-217)
T3 construct: extracellular domain; also called FcγRIIa H; FcγRIIa type H; not shown: His tag attached to the C terminus
T3 sequence (looked up): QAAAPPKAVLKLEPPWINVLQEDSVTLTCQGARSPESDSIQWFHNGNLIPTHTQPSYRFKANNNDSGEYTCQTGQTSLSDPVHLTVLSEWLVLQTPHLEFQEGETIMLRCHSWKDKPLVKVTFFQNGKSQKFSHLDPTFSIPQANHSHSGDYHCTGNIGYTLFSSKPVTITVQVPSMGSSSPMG

T4: FcgRIIaH (human, UniProt P12318 34-217)
T4 construct: extracellular domain; H131 allotype; also called FcγRIIa H; FcgRIIa type H; not shown: C-terminal His tag
T4 sequence (looked up): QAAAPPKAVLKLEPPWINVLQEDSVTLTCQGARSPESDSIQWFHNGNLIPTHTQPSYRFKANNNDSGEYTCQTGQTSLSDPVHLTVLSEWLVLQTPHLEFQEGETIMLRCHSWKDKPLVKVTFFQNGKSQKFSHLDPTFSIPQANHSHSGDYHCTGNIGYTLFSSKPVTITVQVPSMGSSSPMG

T5: FcgRIIaR (human, UniProt P12318 34-217)
T5 construct: extracellular domain; R131 allotype; also called FcγRIIa R; FcgRIIa type R; not shown: C-terminal His tag
T5 sequence (looked up): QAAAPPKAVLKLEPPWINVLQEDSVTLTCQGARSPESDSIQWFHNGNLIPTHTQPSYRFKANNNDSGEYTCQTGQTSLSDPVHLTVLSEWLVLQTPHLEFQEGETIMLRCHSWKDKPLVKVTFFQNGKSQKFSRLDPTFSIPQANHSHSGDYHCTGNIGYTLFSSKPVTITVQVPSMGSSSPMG

T6: FcgRIIb (human, UniProt P31994 43-217)
T6 construct: extracellular domain; also called FcγRIIb; CD32B; not shown: C-terminal His tag
T6 sequence (looked up): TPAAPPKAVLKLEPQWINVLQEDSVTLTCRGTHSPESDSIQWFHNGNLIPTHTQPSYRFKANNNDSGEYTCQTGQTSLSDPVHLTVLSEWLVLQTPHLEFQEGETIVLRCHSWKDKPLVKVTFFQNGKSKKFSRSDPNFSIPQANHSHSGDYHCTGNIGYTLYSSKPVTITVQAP

B1: H240-G1d/L73-k0 (antibody, human IgG1, kappa)
heavy: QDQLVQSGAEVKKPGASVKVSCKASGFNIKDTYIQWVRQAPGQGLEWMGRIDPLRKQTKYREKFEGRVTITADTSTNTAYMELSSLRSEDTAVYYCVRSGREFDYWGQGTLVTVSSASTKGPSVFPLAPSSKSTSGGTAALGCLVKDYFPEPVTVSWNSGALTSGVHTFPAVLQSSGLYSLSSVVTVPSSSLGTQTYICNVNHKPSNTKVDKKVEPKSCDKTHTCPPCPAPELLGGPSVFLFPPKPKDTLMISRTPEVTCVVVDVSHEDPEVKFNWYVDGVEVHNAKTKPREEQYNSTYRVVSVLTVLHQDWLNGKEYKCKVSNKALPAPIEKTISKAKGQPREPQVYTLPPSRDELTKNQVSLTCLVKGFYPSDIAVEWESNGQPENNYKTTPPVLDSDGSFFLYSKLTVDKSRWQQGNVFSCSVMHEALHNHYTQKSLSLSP
light: DIQMTQSPSSLSASVGDRVTITCRASQDIHKYIAWYQQKPGQAPRLLIQYTSTLQPGVPSRFSGSGSGTDYTFTISSLQPEDIATYYCLQYEQLRTFGGGTKVEIKRTVAAPSVFIFPPSDEQLKSGTASVVCLLNNFYPREAKVQWKVDNALQSGNSQESVTEQDSKDSTYSLSSTLTLSKADYEKHKVYACEVTHQGLSSPVTKSFNRGEC
notes: Anti-EREG native IgG1 (G1d constant region lacks the C-terminal Gly and Lys); also called native IgG1
B2: H240-Kn120/H240-Hl085/L73-k0 (antibody, human IgG1, kappa)
heavy 1: QDQLVQSGAEVKKPGASVKVSCKASGFNIKDTYIQWVRQAPGQGLEWMGRIDPLRKQTKYREKFEGRVTITADTSTNTAYMELSSLRSEDTAVYYCVRSGREFDYWGQGTLVTVSSASTKGPSVFPLAPSSKSTSGGTAALGCLVKDYFPEPVTVSWNSGALTSGVHTFPAVLQSSGLYSLSSVVTVPSSSLGTQTYICNVNHKPSNTKVDKKVEPKSCDKTHTCPPCPAPEYYWGPMVFLFPPKPKDTLMISRTPEVTCVVVDVSDEDPEVKFNWYVDGVEVHNAKTKPREEQYNATYRVVSVLTVLHQDWLNGKEYKCKVSNKDLPAPIEKTISKAKGQPREPQVCTLPPSRDELTKNQVSLWCLVKGFYPSDIAVEWESNGQPENNYKTTPPVLDSDGSFFLYSKLTVDKSRWQQGNVFSCSVMHEALHNHYTQKSLSLSP
heavy 2: QDQLVQSGAEVKKPGASVKVSCKASGFNIKDTYIQWVRQAPGQGLEWMGRIDPLRKQTKYREKFEGRVTITADTSTNTAYMELSSLRSEDTAVYYCVRSGREFDYWGQGTLVTVSSASTKGPSVFPLAPSSKSTSGGTAALGCLVKDYFPEPVTVSWNSGALTSGVHTFPAVLQSSGLYSLSSVVTVPSSSLGTQTYICNVNHKPSNTKVDKKVEPKSCDKTHTCPPCPAPELLVGPSVFLFPPKPKDTLMISRTPEVTCVVVDVSHEEPEVKFNWYVDGVEVHNAKTKPREEQYNSTYRVVSVLTVLHQDWLNGKEYKCKVSNDALPKPIEETISKAKGQPREPQVYTLPPSRCELTKNQVSLSCAVKGFYPSDIAVEWESNGQPENNYKTTPPVLDSDGSFFLVSKLTVDKSRWQQGNVFSCSVMHEALHNHYTQKSLSLSP
light: DIQMTQSPSSLSASVGDRVTITCRASQDIHKYIAWYQQKPGQAPRLLIQYTSTLQPGVPSRFSGSGSGTDYTFTISSLQPEDIATYYCLQYEQLRTFGGGTKVEIKRTVAAPSVFIFPPSDEQLKSGTASVVCLLNNFYPREAKVQWKVDNALQSGNSQESVTEQDSKDSTYSLSSTLTLSKADYEKHKVYACEVTHQGLSSPVTKSFNRGEC
notes: Heterodimerized anti-epiregulin antibody; G236V in the Hl068 chain; also called H240-Kn120/H240-HI085/L73-k0
B3: H240-Kn120/H240-Hl086/L73-k0 (antibody, human IgG1, kappa)
heavy 1: QDQLVQSGAEVKKPGASVKVSCKASGFNIKDTYIQWVRQAPGQGLEWMGRIDPLRKQTKYREKFEGRVTITADTSTNTAYMELSSLRSEDTAVYYCVRSGREFDYWGQGTLVTVSSASTKGPSVFPLAPSSKSTSGGTAALGCLVKDYFPEPVTVSWNSGALTSGVHTFPAVLQSSGLYSLSSVVTVPSSSLGTQTYICNVNHKPSNTKVDKKVEPKSCDKTHTCPPCPAPEYYWGPMVFLFPPKPKDTLMISRTPEVTCVVVDVSDEDPEVKFNWYVDGVEVHNAKTKPREEQYNATYRVVSVLTVLHQDWLNGKEYKCKVSNKDLPAPIEKTISKAKGQPREPQVCTLPPSRDELTKNQVSLWCLVKGFYPSDIAVEWESNGQPENNYKTTPPVLDSDGSFFLYSKLTVDKSRWQQGNVFSCSVMHEALHNHYTQKSLSLSP
heavy 2: QDQLVQSGAEVKKPGASVKVSCKASGFNIKDTYIQWVRQAPGQGLEWMGRIDPLRKQTKYREKFEGRVTITADTSTNTAYMELSSLRSEDTAVYYCVRSGREFDYWGQGTLVTVSSASTKGPSVFPLAPSSKSTSGGTAALGCLVKDYFPEPVTVSWNSGALTSGVHTFPAVLQSSGLYSLSSVVTVPSSSLGTQTYICNVNHKPSNTKVDKKVEPKSCDKTHTCPPCPAPELLIGPSVFLFPPKPKDTLMISRTPEVTCVVVDVSHEEPEVKFNWYVDGVEVHNAKTKPREEQYNSTYRVVSVLTVLHQDWLNGKEYKCKVSNDALPKPIEETISKAKGQPREPQVYTLPPSRCELTKNQVSLSCAVKGFYPSDIAVEWESNGQPENNYKTTPPVLDSDGSFFLVSKLTVDKSRWQQGNVFSCSVMHEALHNHYTQKSLSLSP
light: DIQMTQSPSSLSASVGDRVTITCRASQDIHKYIAWYQQKPGQAPRLLIQYTSTLQPGVPSRFSGSGSGTDYTFTISSLQPEDIATYYCLQYEQLRTFGGGTKVEIKRTVAAPSVFIFPPSDEQLKSGTASVVCLLNNFYPREAKVQWKVDNALQSGNSQESVTEQDSKDSTYSLSSTLTLSKADYEKHKVYACEVTHQGLSSPVTKSFNRGEC
notes: Heterodimerized anti-epiregulin antibody; G236I in the Hl068 chain; also called H240-Kn120/H240-HI086/L73-k0

Assays:
[1] = biological target: T7, FcgRIIIa V (human, UniProt P08637 17-208); test: SPR (Biacore), antibody captured on chip, FcgR extracellular domain as analyte
T7 construct: extracellular domain; also called FcγRIIIa V; not shown: His tag attached to the C terminus

[2] = biological target: T1, FcgRIIa R; test: as above
[3] = biological target: T2, FcgRIIb; test: as above
[4] = biological target: T8, FcgRIIIa F (human, UniProt P08637 17-208); test: as above
T8 construct: extracellular domain; also called FcγRIIIa F; not shown: His tag attached to the C terminus

[5] = biological target: T9, FcgRIa (human, UniProt P12314 16-292); test: as above
T9 construct: extracellular domain; Expressed in FreeStyle293 cells and purified; used as analyte in Biacore; also called FcγRIa; FcγRI; not shown: His tag attached to the C terminus
T9 sequence (P12314 16-292): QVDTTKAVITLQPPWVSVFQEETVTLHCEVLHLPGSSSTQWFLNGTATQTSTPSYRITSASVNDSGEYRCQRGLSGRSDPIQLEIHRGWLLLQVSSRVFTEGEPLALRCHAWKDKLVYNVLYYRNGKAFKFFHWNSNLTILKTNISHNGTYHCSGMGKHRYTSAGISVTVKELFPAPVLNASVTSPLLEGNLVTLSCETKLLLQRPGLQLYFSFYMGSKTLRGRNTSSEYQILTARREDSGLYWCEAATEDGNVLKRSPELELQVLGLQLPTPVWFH

[6] = biological target: T3, FcgRIIa H; test: as above
[7] = biological target: T7, FcgRIIIa V; test: as above; remark: listed apart in the source
Method: (§1) Analysis of interaction between obj ective antibody and the FcγR was carried out using Biacore T100 (GE Healthcare), Biacore T200, Biacore A100, and Biacore 4000. HBS-EP+ (GE Healthcare) was used as the running buffer, and the measurement temperature was set to 25° C. Chips produced by immobilizing the antigen peptide by the amine coupling method to a Series S sensor Chip CM5 (GE Healthcare), chips produced by allowing preliminarily biotinylated antigen peptides to interact with and immobilize onto a Series S Sensor Chip SA (certified) (GE Healthcare), chips produced by immobilizing Protein L (ACTIGEN, BioVision) to Series S Sencor Chip CM5 (GE Healthcare), or chips produced by immobilizing Protein A/G (Thermo Scientific) to Series S Sencor Chip CM5 (GE Healthcare) were used. Antibodies of interest were captured onto these chips, and allowed to interact to each FcγR diluted with running buffer. To regenerate and repeatedly use the chip, the antibodies captured onto the chip were washed off by reacting 10 mM glycine-HCl, pH 1.5.

[8] = biological target: T1, FcgRIIa R; test: as above; remark: listed apart in the source
Method: as §1

[9] = biological target: T2, FcgRIIb; test: as above; remark: listed apart in the source
Method: as §1

[10] = biological target: T8, FcgRIIIa F; test: as above; remark: listed apart in the source
Method: as §1

[11] = biological target: T9, FcgRIa; test: as above; remark: listed apart in the source
Method: as §1

[12] = biological target: T3, FcgRIIa H; test: as above; remark: listed apart in the source
Method: as §1

[13] = biological target: T4, FcgRIIaH; test: SPR (Biacore); KD of H240-Kn120/H240-Hl068/L73-k0 divided by KD of the sample
Method: (§2) The variants described above were assessed for their binding to FcgR according to the method described in Reference Example 8.
as §1

[14] = biological target: T5, FcgRIIaR; test: as above
Method: as §2, §1

[15] = biological target: T10, FcgRIIIaF (human, UniProt P08637 17-208); test: as above
T10 construct: extracellular domain; F158 allotype; also called FcγRIIIa F; not shown: C-terminal His tag
Method: as §2, §1

[16] = biological target: T11, FcgRIIIaV (human, UniProt P08637 17-208); test: as above
T11 construct: extracellular domain; V158 allotype; also called FcγRIIIa V; not shown: C-terminal His tag
Method: as §2, §1

[17] = biological target: T6, FcgRIIb; test: as above
Method: as §2, §1

[18] = biological target: T4, FcgRIIaH; test: SPR (Biacore), antibody captured on chip, FcgR as analyte
Method: as §2, §1

[19] = biological target: T5, FcgRIIaR; test: as above
Method: as §2, §1

[20] = biological target: T10, FcgRIIIaF; test: as above
Method: as §2, §1

[21] = biological target: T11, FcgRIIIaV; test: as above
Method: as §2, §1

[22] = biological target: T12, FcgRIa (human, UniProt P12314 16-292); test: as above
T12 construct: extracellular domain; also called FcγRIa; FcγRI; not shown: C-terminal His tag
Method: as §2, §1
T12 sequence (P12314 16-292): as above

[23] = biological target: T6, FcgRIIb; test: as above
Method: as §2, §1

T11 sequence (P08637 17-208 F176V limits assumed): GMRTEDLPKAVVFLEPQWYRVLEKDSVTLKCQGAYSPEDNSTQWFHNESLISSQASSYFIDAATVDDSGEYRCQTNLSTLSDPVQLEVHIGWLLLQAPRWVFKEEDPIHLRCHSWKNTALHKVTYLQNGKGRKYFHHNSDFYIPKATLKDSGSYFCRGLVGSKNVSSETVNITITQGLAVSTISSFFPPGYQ
T10 sequence (P08637 17-208): as the sequence (P08637 17-208 F176V limits assumed) above, with V160F counted along it
T7 sequence (P08637 17-208 F176V limits assumed): as the sequence (P08637 17-208 F176V limits assumed) above
T8 sequence (P08637 17-208): as the sequence (P08637 17-208 F176V limits assumed) above, with V160F counted along it

Binder	Relative KD [13]	Relative KD [14]	Relative KD [15]	Relative KD [16]	Relative KD [17]	Kd [18] [nM]	Kd [19] [nM]	Kd [20] [nM]	Kd [21] [nM]	Kd [22] [nM]	Kd [23] [nM]	also measured
B1												Kd [1]: 310 nM; Kd [2]: 880 nM; Kd [3]: 6000 nM; Kd [4]: 1400 nM; Kd [5]: 0.23 nM; Kd [6]: 660 nM; Kd [7]: 310 nM; Kd [8]: 880 nM; Kd [9]: 6100 nM; Kd [10]: 1400 nM; Kd [11]: 0.23 nM; Kd [12]: 660 nM
B2	0.9	1.1	0.1	0.1	0.4	46	19	23	6.2	87	390	
B3	0.8	0.9	0.1	0	0.3	53	22	33	14	1.4	480	
